Test results taken from paper PMC7374751.

MMP-1, sequence (P03956 100-469): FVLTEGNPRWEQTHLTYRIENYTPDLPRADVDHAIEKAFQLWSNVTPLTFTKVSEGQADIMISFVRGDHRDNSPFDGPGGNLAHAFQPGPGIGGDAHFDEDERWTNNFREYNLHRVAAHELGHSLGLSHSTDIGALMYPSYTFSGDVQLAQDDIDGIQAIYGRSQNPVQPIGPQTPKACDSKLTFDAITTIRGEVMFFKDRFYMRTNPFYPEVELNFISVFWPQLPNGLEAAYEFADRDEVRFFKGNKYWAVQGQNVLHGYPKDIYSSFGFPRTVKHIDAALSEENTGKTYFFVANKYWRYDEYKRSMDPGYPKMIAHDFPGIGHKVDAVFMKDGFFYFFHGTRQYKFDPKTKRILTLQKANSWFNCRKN

Target: TIMP-1 (Homo sapiens) (UniProt P01033)
Assay: not given
Settings: cited from earlier work
In the case of MMP-1 (from UniProt P03956), the Ki is listed as 0.38 nM.

Target: low-density lipoprotein receptor-related protein 1 (LRP-1) (UniProt Q07954)
Sequence (Q07954 20-4544): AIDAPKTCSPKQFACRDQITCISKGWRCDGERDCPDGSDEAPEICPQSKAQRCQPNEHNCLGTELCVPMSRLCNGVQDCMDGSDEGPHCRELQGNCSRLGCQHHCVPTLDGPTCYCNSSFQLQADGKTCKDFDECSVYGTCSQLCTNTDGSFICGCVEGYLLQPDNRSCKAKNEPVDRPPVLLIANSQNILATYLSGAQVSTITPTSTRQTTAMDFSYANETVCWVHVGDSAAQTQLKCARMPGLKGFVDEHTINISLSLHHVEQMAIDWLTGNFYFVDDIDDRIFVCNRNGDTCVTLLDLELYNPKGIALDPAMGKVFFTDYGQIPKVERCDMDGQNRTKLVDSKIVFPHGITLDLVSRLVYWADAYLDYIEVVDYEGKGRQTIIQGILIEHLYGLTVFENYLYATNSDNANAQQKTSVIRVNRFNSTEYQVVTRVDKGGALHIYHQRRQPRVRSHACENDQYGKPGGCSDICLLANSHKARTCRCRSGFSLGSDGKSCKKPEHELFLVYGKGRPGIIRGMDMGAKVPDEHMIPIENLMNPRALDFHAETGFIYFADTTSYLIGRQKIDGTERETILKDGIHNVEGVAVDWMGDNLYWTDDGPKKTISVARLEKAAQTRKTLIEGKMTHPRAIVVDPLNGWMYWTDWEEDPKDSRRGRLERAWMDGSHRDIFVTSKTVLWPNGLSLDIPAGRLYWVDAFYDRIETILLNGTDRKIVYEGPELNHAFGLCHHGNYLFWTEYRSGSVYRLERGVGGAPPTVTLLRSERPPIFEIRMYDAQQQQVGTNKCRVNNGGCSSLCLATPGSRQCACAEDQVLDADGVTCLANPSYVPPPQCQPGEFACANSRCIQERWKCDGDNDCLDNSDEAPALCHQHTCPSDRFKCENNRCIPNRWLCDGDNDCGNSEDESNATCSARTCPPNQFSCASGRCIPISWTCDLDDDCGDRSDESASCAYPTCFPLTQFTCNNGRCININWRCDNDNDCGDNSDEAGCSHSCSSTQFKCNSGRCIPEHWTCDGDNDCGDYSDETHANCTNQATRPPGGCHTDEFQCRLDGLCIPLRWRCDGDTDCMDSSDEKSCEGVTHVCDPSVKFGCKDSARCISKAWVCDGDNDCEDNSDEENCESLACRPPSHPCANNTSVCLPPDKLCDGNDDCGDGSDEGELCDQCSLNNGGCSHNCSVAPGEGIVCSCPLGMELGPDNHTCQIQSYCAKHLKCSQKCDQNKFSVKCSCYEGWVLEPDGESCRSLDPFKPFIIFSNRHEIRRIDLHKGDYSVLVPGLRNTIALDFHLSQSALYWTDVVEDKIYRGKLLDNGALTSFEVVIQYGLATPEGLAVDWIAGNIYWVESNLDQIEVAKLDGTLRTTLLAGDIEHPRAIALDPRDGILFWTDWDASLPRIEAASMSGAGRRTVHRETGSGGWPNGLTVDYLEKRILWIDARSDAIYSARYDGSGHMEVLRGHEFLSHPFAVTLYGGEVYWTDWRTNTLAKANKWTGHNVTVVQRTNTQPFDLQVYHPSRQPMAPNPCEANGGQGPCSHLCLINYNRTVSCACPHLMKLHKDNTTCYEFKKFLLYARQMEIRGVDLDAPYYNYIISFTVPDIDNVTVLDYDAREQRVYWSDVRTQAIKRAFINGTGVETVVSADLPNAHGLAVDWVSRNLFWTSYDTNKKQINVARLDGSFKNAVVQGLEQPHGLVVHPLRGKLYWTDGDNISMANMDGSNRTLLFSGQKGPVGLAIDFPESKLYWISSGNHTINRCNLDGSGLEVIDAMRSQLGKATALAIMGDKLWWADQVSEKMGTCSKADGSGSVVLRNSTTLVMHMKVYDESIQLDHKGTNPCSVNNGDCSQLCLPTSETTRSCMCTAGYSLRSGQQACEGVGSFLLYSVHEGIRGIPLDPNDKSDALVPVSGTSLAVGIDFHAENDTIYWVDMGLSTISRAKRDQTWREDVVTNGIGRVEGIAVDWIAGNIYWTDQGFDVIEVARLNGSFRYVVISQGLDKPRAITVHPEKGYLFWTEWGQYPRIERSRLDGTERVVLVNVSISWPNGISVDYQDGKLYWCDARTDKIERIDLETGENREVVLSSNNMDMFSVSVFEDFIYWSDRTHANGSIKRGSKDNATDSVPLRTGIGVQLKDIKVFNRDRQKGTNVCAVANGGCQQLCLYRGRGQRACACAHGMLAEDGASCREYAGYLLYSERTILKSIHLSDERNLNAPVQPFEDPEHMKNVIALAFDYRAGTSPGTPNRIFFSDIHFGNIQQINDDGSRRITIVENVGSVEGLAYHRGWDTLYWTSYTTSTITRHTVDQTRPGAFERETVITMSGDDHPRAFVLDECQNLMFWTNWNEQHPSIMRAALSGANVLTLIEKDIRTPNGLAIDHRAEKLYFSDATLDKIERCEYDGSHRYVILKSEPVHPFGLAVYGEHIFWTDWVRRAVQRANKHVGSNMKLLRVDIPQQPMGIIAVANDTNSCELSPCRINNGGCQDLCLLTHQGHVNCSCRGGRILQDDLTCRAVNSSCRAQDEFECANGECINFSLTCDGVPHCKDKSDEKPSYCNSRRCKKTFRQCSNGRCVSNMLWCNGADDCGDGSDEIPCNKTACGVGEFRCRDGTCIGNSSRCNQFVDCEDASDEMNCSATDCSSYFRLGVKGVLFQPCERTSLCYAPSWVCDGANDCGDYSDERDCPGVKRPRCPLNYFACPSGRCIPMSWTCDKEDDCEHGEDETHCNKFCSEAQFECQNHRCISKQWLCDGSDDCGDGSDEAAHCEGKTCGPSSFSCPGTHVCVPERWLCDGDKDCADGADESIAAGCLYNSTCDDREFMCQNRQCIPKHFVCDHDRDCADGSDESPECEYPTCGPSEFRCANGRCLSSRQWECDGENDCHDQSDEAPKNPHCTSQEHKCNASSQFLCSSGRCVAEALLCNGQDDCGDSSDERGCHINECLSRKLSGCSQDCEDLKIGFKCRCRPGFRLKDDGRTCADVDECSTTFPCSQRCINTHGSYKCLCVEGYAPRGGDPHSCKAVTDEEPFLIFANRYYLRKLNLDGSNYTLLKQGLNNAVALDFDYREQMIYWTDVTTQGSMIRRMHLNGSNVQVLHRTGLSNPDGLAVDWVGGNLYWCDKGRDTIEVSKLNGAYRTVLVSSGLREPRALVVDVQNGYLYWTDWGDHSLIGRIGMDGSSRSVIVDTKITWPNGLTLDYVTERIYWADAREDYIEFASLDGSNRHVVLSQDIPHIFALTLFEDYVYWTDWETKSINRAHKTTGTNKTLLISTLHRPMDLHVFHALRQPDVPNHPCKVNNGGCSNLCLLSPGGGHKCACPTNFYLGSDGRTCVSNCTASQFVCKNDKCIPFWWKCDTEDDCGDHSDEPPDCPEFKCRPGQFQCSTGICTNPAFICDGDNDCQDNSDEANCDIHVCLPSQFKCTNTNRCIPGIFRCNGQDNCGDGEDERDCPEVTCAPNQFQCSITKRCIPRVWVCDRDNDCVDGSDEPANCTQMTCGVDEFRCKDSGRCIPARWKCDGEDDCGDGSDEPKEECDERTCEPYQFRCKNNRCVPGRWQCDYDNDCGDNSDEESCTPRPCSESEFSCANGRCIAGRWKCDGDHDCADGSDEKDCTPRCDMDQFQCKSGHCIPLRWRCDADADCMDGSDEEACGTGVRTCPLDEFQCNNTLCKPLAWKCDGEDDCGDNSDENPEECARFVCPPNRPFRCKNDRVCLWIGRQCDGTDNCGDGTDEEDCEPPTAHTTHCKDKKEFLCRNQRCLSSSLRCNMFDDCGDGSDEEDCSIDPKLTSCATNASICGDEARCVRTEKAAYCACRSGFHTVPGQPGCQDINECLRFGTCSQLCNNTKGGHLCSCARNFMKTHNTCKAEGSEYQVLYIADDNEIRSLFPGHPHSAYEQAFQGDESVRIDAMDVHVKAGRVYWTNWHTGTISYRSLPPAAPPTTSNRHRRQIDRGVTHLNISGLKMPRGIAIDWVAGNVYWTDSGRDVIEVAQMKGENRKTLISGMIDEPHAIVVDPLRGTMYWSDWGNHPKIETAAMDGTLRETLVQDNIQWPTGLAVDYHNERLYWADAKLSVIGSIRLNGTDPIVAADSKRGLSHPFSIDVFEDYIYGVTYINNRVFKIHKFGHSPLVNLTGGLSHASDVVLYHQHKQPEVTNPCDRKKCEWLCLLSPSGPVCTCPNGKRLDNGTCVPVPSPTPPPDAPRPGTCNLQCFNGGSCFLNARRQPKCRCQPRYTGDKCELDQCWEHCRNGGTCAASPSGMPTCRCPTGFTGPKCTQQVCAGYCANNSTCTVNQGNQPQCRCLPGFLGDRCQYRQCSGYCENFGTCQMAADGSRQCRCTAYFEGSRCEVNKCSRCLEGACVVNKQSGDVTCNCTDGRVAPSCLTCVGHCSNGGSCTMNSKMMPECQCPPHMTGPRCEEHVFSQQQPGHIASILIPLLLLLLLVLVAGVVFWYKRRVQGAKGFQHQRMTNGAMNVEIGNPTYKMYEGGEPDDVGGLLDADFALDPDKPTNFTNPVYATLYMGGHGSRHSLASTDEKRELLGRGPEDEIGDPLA
Assay: SPR; BIAcore T200; LRP-1 immobilised on a CM5 chip by amine coupling (3000 RU); 25 °C; 150 mM NaCl, 10 mM CaCl2, 50 mM Tris-HCl, 0.01% Tween-20, pH 7.5; 30 μl/min; ligands or pre-formed complexes injected; one-site binding model; triplicate
Settings: not given
With “MMP-1/TIMP-3 complex (from UniProt P35625 24-211)” the Kd was 4.96 nM, the koff was 0.00228 s⁻¹ and the kon was 461000 M⁻¹ s⁻¹. With “MMP-1 (E200A), catalytically inactive form of MMP-1 (enzyme)” the Kd was 34.6 nM, the koff was 0.00468 s⁻¹ and the kon was 136000 M⁻¹ s⁻¹. “MMP-13/TIMP-3 complex (from UniProt P45452 20-471; P35625 24-211)” gave a Kd of 3.35 nM, a koff of 0.00295 s⁻¹ and a kon of 882000 M⁻¹ s⁻¹. Work on “MMP-1/TIMP-2 complex (from UniProt P16035 27-220)” yielded a Kd of 7.8 nM, a koff of 0.00327 s⁻¹ and a kon of 419000 M⁻¹ s⁻¹. Work on “MMP-1/TIMP-1 complex (from UniProt P01033 24-207)” yielded a Kd of 16.5 nM, a koff of 0.0064 s⁻¹ and a kon of 390000 M⁻¹ s⁻¹. Work on “MMP-13 (E204A), catalytically inactive mutant (enzyme)” yielded a Kd of 25.6 nM, a koff of 0.00598 s⁻¹ and a kon of 234000 M⁻¹ s⁻¹. In the case of “MMP-13/TIMP-1 complex (from UniProt P45452 20-471; P01033 24-207)”, the Kd is reported as 10.6 nM, the koff is reported as 0.00345 s⁻¹ and the kon is reported as 326000 M⁻¹ s⁻¹. “MMP-13/TIMP-2 complex (from UniProt P45452 20-471; P16035 27-220)” gave a Kd of 5.59 nM, a koff of 0.00241 s⁻¹ and a kon of 431000 M⁻¹ s⁻¹. Substance MMP-1/N-TIMP-3 complex has a Kd of 4.3 nM, a koff of 0.00246 s⁻¹ and a kon of 573000 M⁻¹ s⁻¹.

Target: low-density lipoprotein receptor-related protein 1 (LRP-1) (UniProt Q07954)
Assay: not given
Settings: not given
For full length MMP-1 (enzyme), the decrease in clearance of 10 nM intact [35S]MMP-1 from the conditioned medium of HTB94 cells, 0-24 h was 20%.

Target: TIMP-3 (Homo sapiens) (UniProt P35625)
Assay: not given
Settings: cited from earlier work
In the case of MMP-1 (from UniProt P03956), the Ki is listed as 1.1 nM.

Target: LRP-1 (Homo sapiens) (UniProt Q07954)
Sequence (Q07954 20-4544): as above
Assay: not given
Settings: cited from earlier work
In the case of RAP (from UniProt P30533), the Kd is given as 1.4 nM.

Target: TIMP-2 (Homo sapiens) (UniProt P16035)
Assay: not given
Settings: cited from earlier work
In the case of MMP-1 (from UniProt P03956), the Ki is listed as 1.03 nM.
